According to patent publication US20230028476A1 (EVOTEC INTERNATIONAL, published 2023):
Like-named read-outs stand apart in the source and are kept apart here. One block for each binder: values may come before it.

Assays:
Test in all cases: cell-based or functional assay
[1] = biological target: human IFN receptor on HEK-Blue IFN-γ cells (human)
human CD40 [2] = biological target: T1, human CD40 (human, UniProt P25942 21-277)
[3] = biological target: human IFN receptor on HEK-Blue IFN-γ cells (human); remark: listed apart in the source
human CD40 [4] = biological target: T1, human CD40; remark: listed apart in the source
[5] = biological target: human IFN receptor on HEK-Blue IFN-λ cells (human)
human CD40 [6] = biological target: T1, human CD40; remark: listed apart in the source
[7] = biological target: human IFN receptor on HEK-Blue IFN-α/β cells (human)

T1 sequence (P25942 21-277): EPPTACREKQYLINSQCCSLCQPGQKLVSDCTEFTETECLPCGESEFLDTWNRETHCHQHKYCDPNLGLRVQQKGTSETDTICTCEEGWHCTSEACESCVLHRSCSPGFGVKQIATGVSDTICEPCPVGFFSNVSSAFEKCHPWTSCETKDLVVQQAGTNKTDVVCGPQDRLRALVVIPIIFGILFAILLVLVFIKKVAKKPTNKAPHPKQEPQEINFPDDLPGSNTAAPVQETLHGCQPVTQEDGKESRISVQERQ

IFNγ EC50 (HEK-Blue IFNγ reporter cells) [1]: < 0.001 ng/mL
CD40 EC50 (HEK-Blue CD40L reporter cells) (human CD40 [2]): 50.8 ng/mL
IFNγ activity EC50 (HEK-Blue IFNγ reporter cells) [3]: < 0.01 ng/mL
B1: IFA43 (antibody, human IgG2, kappa)
heavy: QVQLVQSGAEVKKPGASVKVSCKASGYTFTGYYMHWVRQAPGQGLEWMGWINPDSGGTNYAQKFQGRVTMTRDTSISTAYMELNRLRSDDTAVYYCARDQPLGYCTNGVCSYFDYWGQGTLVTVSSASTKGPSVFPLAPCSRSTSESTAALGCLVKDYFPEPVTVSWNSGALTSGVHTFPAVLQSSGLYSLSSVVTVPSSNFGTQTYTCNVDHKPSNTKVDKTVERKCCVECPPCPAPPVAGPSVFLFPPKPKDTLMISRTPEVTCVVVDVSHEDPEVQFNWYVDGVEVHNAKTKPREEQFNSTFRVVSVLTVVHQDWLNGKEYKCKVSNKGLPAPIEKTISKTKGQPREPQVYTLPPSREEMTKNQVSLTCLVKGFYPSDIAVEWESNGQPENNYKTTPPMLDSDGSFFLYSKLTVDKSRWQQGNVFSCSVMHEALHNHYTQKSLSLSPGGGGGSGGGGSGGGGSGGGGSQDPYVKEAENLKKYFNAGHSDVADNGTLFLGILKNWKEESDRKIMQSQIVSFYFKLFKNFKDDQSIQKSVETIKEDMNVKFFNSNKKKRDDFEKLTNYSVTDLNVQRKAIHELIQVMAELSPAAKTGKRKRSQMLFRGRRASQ
light: DIQMTQSPSSVSASVGDRVTITCRASQGIYSWLAWYQQKPGKAPNLLIYTASTLQSGVPSRFSGSGSGTDFTLTISSLQPEDFATYYCQQANIFPLTFGGGTKVEIKRTVAAPSVFIFPPSDEQLKSGTASVVCLLNNFYPREAKVQWKVDNALQSGNSQESVTEQDSKDSTYSLSSTLTLSKADYEKHKVYACEVTHQGLSSPVTKSFNRGEC

EC50, agonistic CD40 activity in the experiment of FIG. 3 (HEK-Blue CD40L reporter cells) (human CD40 [4]): 57 ng/mL
EC50, potency on CD40 pathway (HEK-Blue CD40L reporter cells) (human CD40 [4]): 30 to 80 ng/mL
mean EC50, agonistic CD40 activity (HEK-Blue CD40L reporter cells) (human CD40 [4]): 48 ng/mL
B2: agonistic anti-CD40 antibody CP870,893 (antibody, human IgG2, kappa)
heavy: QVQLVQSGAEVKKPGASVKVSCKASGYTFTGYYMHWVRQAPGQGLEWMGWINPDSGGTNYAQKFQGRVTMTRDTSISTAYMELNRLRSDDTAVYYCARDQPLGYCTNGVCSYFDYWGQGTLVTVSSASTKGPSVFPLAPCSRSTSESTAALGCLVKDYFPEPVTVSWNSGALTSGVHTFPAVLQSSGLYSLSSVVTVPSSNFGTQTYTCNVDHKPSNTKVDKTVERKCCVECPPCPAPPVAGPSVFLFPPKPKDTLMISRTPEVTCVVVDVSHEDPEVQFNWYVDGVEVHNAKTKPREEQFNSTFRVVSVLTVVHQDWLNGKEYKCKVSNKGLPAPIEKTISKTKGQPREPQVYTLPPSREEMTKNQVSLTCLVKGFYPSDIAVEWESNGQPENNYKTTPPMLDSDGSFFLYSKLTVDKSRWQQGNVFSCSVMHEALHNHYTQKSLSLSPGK
light: DIQMTQSPSSVSASVGDRVTITCRASQGIYSWLAWYQQKPGKAPNLLIYTASTLQSGVPSRFSGSGSGTDFTLTISSLQPEDFATYYCQQANIFPLTFGGGTKVEIKRTVAAPSVFIFPPSDEQLKSGTASVVCLLNNFYPREAKVQWKVDNALQSGNSQESVTEQDSKDSTYSLSSTLTLSKADYEKHKVYACEVTHQGLSSPVTKSFNRGEC

CD40 EC50 (HEK-Blue CD40L reporter cells) (human CD40 [2]): 25.8 ng/mL
IFNλ EC50 (HEK-Blue IFNλ reporter cells) [5]: < 0.001 ng/mL
B3: IFA45 (antibody, human IgG2, kappa)
heavy: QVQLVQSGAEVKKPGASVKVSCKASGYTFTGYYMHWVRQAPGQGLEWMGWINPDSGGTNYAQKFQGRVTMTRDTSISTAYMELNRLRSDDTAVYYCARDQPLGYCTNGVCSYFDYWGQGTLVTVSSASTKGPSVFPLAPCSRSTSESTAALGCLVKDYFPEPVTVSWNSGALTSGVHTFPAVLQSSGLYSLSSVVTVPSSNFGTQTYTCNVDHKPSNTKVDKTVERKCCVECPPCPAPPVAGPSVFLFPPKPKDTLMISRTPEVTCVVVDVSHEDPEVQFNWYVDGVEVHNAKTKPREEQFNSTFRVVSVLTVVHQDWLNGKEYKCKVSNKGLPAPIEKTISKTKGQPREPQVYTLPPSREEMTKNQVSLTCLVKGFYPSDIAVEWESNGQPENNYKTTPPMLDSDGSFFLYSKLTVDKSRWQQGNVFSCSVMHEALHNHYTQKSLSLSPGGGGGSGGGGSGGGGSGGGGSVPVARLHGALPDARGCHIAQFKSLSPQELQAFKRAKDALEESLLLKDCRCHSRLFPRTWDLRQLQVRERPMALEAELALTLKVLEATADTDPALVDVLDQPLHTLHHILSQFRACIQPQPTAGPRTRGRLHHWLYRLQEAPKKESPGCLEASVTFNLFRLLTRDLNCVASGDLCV
light: DIQMTQSPSSVSASVGDRVTITCRASQGIYSWLAWYQQKPGKAPNLLIYTASTLQSGVPSRFSGSGSGTDFTLTISSLQPEDFATYYCQQANIFPLTFGGGTKVEIKRTVAAPSVFIFPPSDEQLKSGTASVVCLLNNFYPREAKVQWKVDNALQSGNSQESVTEQDSKDSTYSLSSTLTLSKADYEKHKVYACEVTHQGLSSPVTKSFNRGEC

IFNγ EC50 (HEK-Blue IFNγ reporter cells) [1]: 15.4 ng/mL
CD40 EC50 (HEK-Blue CD40L reporter cells) (human CD40 [2]): 65.6 ng/mL
B4: IFA42 (antibody, human IgG2, kappa)
light: DIQMTQSPSSVSASVGDRVTITCRASQGIYSWLAWYQQKPGKAPNLLIYTASTLQSGVPSRFSGSGSGTDFTLTISSLQPEDFATYYCQQANIFPLTFGGGTKVEIKRTVAAPSVFIFPPSDEQLKSGTASVVCLLNNFYPREAKVQWKVDNALQSGNSQESVTEQDSKDSTYSLSSTLTLSKADYEKHKVYACEVTHQGLSSPVTKSFNRGECGGGGSGGGGSGGGGSGGGGSQDPYVKEAENLKKYFNAGHSDVADNGTLFLGILKNWKEESDRKIMQSQIVSFYFKLFKNFKDDQSIQKSVETIKEDMNVKFFNSNKKKRDDFEKLTNYSVTDLNVQRKAIHELIQVMAELSPAAKTGKRKRSQMLFRGRRASQ
heavy: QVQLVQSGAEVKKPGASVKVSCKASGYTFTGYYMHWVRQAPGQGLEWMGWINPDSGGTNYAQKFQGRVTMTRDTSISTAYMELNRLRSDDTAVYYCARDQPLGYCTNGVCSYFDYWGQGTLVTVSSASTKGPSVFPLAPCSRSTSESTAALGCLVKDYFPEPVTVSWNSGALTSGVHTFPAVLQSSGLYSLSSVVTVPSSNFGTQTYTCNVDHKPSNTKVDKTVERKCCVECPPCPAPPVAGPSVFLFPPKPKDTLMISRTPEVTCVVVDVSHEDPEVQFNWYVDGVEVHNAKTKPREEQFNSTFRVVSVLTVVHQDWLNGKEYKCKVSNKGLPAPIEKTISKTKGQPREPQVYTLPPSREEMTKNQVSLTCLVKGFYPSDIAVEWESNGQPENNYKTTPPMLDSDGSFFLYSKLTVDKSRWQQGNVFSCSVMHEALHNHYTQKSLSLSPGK

mean EC50, CD40 activity (HEK-Blue CD40L reporter cells) (human CD40 [4]): 9.3 ng/mL
B5: anti-CD40 antibody 3G5 (Celldex) (antibody, human IgG2, kappa)
heavy: QVQLVESGGGVVQPGKSLRLSCAASGFTFSSNGIHWVRQAPGKGLEWVAVIWSDGSNKFYADSVKGRFTISRDNSKNTLYLQMNSLRAEDTAVYYCARASGSGSYYNFFDYWGQGTLVTVSSASTKGPSVFPLAPCSRSTSESTAALGCLVKDYFPEPVTVSWNSGALTSGVHTFPAVLQSSGLYSLSSVVTVPSSNFGTQTYTCNVDHKPSNTKVDKTVERKCCVECPPCPAPPVAGPSVFLFPPKPKDTLMISRTPEVTCVVVDVSHEDPEVQFNWYVDGVEVHNAKTKPREEQFNSTFRVVSVLTVVHQDWLNGKEYKCKVSNKGLPAPIEKTISKTKGQPREPQVYTLPPSREEMTKNQVSLTCLVKGFYPSDIAVEWESNGQPENNYKTTPPMLDSDGSFFLYSKLTVDKSRWQQGNVFSCSVMHEALHNHYTQKSLSLSPG
light: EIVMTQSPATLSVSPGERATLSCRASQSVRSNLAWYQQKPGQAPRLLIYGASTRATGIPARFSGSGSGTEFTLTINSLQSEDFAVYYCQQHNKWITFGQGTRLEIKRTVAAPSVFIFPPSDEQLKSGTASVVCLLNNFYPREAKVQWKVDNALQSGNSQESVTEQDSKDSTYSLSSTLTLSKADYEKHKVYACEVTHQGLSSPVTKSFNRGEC

CD40 EC50 (HEK-Blue CD40L reporter cells) (human CD40 [6]): 37.3 ng/mL
IFNβ EC50 (HEK-Blue IFN-α/β reporter cells) [7]: 1.27 ng/mL
B6: IFA108 (antibody, human IgG2, kappa)
heavy: QVQLVESGGGVVQPGKSLRLSCAASGFTFSSNGIHWVRQAPGKGLEWVAVIWSDGSNKFYADSVKGRFTISRDNSKNTLYLQMNSLRAEDTAVYYCARASGSGSYYNFFDYWGQGTLVTVSSASTKGPSVFPLAPCSRSTSESTAALGCLVKDYFPEPVTVSWNSGALTSGVHTFPAVLQSSGLYSLSSVVTVPSSNFGTQTYTCNVDHKPSNTKVDKTVERKCCVECPPCPAPPVAGPSVFLFPPKPKDTLMISRTPEVTCVVVDVSHEDPEVQFNWYVDGVEVHNAKTKPREEQFNSTFRVVSVLTVVHQDWLNGKEYKCKVSNKGLPAPIEKTISKTKGQPREPQVYTLPPSREEMTKNQVSLTCLVKGFYPSDIAVEWESNGQPENNYKTTPPMLDSDGSFFLYSKLTVDKSRWQQGNVFSCSVMHEALHNHYTQKSLSLSPGAEAAAKEAAAKASYNLLGFLQRSSNFQCQKLLWQLNGRLEYCLKDRMNFDIPEEIKQLQQFQKEDAALTIYEMLQNIFAIFRQDSSSTGWNETIVENLLANVYHQINHLKTVLEEKLEKEDFTRGKLMSSLHLKRYYGRILHYLKAKEYSHCAWTIVRVEILRNFYFINRLTGYLRN
light: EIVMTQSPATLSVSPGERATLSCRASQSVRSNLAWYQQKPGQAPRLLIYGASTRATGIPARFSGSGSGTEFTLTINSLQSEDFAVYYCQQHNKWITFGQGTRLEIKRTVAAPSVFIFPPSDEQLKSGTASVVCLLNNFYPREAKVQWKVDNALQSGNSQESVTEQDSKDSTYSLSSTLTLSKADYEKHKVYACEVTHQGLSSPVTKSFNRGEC

CD40 EC50 (HEK-Blue CD40L reporter cells) (human CD40 [6]): 30 ng/mL
IFNβ EC50 (HEK-Blue IFN-α/β reporter cells) [7]: 0.45 ng/mL
B7: IFA109 (antibody, human IgG2, kappa)
heavy: QVQLVESGGGVVQPGKSLRLSCAASGFTFSSNGIHWVRQAPGKGLEWVAVIWSDGSNKFYADSVKGRFTISRDNSKNTLYLQMNSLRAEDTAVYYCARASGSGSYYNFFDYWGQGTLVTVSSASTKGPSVFPLAPCSRSTSESTAALGCLVKDYFPEPVTVSWNSGALTSGVHTFPAVLQSSGLYSLSSVVTVPSSNFGTQTYTCNVDHKPSNTKVDKTVERKCCVECPPCPAPPVAGPSVFLFPPKPKDTLMISRTPEVTCVVVDVSHEDPEVQFNWYVDGVEVHNAKTKPREEQFNSTFRVVSVLTVVHQDWLNGKEYKCKVSNKGLPAPIEKTISKTKGQPREPQVYTLPPSREEMTKNQVSLTCLVKGFYPSDIAVEWESNGQPENNYKTTPPMLDSDGSFFLYSKLTVDKSRWQQGNVFSCSVMHEALHNHYTQKSLSLSPGAEAAAKEAAAKASYNLLGFLQRSSNFQSQKLLWQLNGRLEYCLKDRMNFDIPEEIKQLQQFQKEDAALTIYEMLQNIFAIFRQDSSSTGWNETIVENLLANVYHQINHLKTVLEEKLEKEDFTRGKLMSSLHLKRYYGRILHYLKAKEYSHCAWTIVRVEILRNFYFINRLTGYLRN
light: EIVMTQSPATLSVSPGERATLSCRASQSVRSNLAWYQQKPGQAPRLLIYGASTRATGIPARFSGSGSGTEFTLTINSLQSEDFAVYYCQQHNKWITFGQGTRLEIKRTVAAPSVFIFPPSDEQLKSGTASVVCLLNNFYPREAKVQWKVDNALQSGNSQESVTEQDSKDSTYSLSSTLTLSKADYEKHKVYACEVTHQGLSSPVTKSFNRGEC

CD40 EC50 (HEK-Blue CD40L reporter cells) (human CD40 [2]): 41.4 ng/mL
IFNλ EC50 (HEK-Blue IFNλ reporter cells) [5]: 0.153 ng/mL
B8: IFA44 (antibody, human IgG2, kappa)
light: DIQMTQSPSSVSASVGDRVTITCRASQGIYSWLAWYQQKPGKAPNLLIYTASTLQSGVPSRFSGSGSGTDFTLTISSLQPEDFATYYCQQANIFPLTFGGGTKVEIKRTVAAPSVFIFPPSDEQLKSGTASVVCLLNNFYPREAKVQWKVDNALQSGNSQESVTEQDSKDSTYSLSSTLTLSKADYEKHKVYACEVTHQGLSSPVTKSFNRGECGGGGSGGGGSGGGGSGGGGSVPVARLHGALPDARGCHIAQFKSLSPQELQAFKRAKDALEESLLLKDCRCHSRLFPRTWDLRQLQVRERPMALEAELALTLKVLEATADTDPALVDVLDQPLHTLHHILSQFRACIQPQPTAGPRTRGRLHHWLYRLQEAPKKESPGCLEASVTFNLFRLLTRDLNCVASGDLCV
heavy: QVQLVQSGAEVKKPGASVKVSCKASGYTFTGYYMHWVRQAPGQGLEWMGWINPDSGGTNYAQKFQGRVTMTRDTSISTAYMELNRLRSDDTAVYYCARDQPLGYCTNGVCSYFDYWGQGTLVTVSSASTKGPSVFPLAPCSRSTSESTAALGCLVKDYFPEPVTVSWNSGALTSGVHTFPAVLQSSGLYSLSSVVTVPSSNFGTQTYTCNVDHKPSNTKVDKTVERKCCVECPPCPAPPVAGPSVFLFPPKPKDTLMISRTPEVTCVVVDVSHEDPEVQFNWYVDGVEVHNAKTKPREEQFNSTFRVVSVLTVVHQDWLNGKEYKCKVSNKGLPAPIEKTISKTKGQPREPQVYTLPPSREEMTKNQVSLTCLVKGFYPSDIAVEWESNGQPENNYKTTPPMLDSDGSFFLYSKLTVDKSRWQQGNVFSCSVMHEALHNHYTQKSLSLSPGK
